The values that follow are results of earlier work, collected in patent publication US20240156960A1 (priority 2020, published 2024).

The target in one series is SARS-CoV2 S; RBD (Severe acute respiratory syndrome coronavirus 2, UniProt P0DTC2). The following applies: epitope S.
A further series concerns the target SARS-CoV1 S (Severe acute respiratory syndrome coronavirus, UniProt P59594).
The next series deals with NL63 S (Human coronavirus NL63, UniProt Q6Q1S2). The note with it: Protein + Epitope S, Unk.
Sequence of NL63 S (Q6Q1S2 19-1356): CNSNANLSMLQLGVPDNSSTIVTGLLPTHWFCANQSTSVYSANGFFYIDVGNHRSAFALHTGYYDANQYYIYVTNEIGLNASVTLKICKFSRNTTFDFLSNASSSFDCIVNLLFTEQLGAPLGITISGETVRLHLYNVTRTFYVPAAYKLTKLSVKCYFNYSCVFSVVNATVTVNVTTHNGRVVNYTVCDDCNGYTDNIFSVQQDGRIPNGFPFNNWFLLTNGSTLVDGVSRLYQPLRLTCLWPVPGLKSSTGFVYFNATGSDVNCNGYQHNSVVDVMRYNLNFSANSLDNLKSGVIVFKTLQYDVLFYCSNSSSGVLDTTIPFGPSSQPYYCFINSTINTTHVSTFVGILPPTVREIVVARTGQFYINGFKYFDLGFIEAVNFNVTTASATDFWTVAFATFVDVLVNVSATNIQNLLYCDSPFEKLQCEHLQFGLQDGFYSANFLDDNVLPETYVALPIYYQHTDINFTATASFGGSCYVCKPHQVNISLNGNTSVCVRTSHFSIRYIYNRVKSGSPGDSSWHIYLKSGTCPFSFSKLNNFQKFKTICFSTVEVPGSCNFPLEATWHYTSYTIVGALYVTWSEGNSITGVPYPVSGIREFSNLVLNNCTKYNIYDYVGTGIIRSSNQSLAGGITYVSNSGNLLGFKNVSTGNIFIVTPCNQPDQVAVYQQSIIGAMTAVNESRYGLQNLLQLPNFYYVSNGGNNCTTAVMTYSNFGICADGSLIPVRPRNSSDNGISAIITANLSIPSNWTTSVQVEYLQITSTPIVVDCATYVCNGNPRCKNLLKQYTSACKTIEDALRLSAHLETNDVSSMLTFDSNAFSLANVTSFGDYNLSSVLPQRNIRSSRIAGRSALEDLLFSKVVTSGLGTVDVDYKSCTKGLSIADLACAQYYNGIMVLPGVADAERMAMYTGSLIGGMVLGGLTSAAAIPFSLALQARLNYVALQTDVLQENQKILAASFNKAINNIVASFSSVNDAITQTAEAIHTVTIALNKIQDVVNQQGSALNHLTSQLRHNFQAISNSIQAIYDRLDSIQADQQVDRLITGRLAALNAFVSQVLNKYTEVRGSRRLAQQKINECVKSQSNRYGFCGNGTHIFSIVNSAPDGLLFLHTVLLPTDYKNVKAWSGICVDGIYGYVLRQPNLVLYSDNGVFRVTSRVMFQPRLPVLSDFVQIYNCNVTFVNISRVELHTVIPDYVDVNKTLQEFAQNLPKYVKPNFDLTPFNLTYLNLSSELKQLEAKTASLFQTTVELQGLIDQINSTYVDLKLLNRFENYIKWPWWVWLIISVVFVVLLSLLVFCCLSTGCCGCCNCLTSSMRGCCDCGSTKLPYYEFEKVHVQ
In the next series the target is SARS-CoV2 S (Severe acute respiratory syndrome coronavirus 2, UniProt P0DTC2). The following applies: Protein + Epitope S, Unk.
Another series concerns the target OC43 S (Human coronavirus OC43, UniProt P36334). The note with it: Protein + Epitope S, Unk.

Numbering of substitutions follows the chain as printed.

Sequence of OC43 S (P36334 14-1353): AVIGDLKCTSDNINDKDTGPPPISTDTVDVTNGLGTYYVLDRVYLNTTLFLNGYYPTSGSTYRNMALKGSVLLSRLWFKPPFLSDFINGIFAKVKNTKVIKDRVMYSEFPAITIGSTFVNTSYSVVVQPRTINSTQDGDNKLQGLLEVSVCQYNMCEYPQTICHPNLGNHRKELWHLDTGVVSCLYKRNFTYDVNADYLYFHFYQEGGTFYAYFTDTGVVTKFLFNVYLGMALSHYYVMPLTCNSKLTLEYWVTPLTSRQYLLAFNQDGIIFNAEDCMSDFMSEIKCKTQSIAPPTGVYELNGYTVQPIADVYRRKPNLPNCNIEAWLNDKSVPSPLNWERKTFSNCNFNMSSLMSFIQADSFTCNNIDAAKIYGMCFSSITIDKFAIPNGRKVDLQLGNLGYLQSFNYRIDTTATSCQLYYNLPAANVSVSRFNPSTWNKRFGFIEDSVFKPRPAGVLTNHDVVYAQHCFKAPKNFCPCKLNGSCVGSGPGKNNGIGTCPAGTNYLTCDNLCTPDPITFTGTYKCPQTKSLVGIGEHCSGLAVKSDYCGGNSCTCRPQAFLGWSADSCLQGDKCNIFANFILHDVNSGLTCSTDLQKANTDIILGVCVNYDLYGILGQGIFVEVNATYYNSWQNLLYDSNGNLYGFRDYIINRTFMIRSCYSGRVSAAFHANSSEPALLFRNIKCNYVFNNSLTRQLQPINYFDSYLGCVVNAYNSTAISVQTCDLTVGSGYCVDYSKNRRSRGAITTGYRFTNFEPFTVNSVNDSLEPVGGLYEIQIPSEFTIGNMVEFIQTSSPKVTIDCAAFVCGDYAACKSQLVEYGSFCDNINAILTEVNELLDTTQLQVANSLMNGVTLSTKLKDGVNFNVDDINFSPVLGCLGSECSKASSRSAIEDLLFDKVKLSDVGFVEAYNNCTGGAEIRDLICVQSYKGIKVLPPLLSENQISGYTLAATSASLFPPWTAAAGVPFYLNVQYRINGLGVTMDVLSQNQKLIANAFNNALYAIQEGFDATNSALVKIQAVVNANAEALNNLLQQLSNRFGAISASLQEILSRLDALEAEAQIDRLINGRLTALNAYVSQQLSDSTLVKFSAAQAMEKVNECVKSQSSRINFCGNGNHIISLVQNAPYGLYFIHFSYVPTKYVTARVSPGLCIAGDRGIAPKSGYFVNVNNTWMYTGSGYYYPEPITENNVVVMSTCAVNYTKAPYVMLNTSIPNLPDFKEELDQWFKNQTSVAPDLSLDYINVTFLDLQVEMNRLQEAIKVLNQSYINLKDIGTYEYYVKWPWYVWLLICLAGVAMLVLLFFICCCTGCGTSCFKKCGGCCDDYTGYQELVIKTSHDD

B1: C117 (antibody, listed as Homo sapiens, V domains shown)
VH: QVQLVESGGGVVQPGRSLRLSCAASGFTFSTYAMHWVRQAPGEGLEWVAVISYDGSNTYYADSVKGRFTISRDNSKNTLYLQMNSLRAEDTAVYYCARDPIWFGELLSPPFVHFDYWGQGTLVTVSS
VL: QSVLTQPPSVSAAPGQKVTISCSGSSSNIGNNLVSWYQQLPGTAPKLLIYENNKRPSGIPDRFSGSKSGTSATLGITGLQTGDEADYYCGAWDSSLSAGGVYVFGTGTKVTVL
Regarding B1, the “Binds to” value in the series with SARS-CoV2 S; RBD is reported as “SARS-CoV2”.

B2: C124 (antibody, listed as Homo sapiens, V domains shown)
VH: EVQLVESGGGLVQPGGSLRLSCAASGFTFSGYSMNWVRQAPGKGPEWVSYISRSSSTIYYADSVKGRFTISRDNAKNSLYLQMNSLRDEDTAVYYCAREGARVGATYDTYYFDYWGQGTLVTVSS
VL: EIVLTQSPATLSLSPGERATLSCRASQSFSSYLAWYQQKPGQAPRLLIYDASNRATGIPARFSGSGSGTDFTLTISSLEPEDFAVYYCQQRNNWPPEWTFGQGTKVEIK
For the molecule B2, the “Binds to” value in the series with SARS-CoV2 S; RBD was “SARS-CoV2”.

B3: 2M-7E9 (antibody, listed as Homo sapiens, V domains shown)
VH: EVQLVESGAEVKKPGSSVKVSCKASGGTFSSFAISWVRQAPGQGLEWMGGIIPIFDTTNYAQKFQGRVTITADESTRTAYMELSSLRSEDTAVYYCARIPGWDRGTDRNWNDDWGQGTTVTVSS
VL: B2 VL with E1D, L4M, F29V, S31N, Y32F, N92S, E97A, W98F, Q102P
With B3, in the series on SARS-CoV2, the “Binds to” value is given as “SARS-CoV2”.

B4: 2M-8E7 (antibody, listed as Homo sapiens, V domains shown)
VH: EVQLVESGAEVKKPGSSVKVSCKASGGTFSSYAISWVRQAPGQGLEWMGGIIPIFGTANYAQKFQGRVTVTADESTSTAYMELSSLRSEDTAVYYCARTYSFDSSGYYYDYWGQGTMVTVSS
VL: B2 VL with F29V, N92S, E97K, W98I, K105R, V106L
For the molecule B4, in the series with SARS-CoV2, the “Binds to” value is given as “SARS-CoV2”.

B5: C101 (antibody, listed as Homo sapiens, V domains shown)
VH: QVQLVESGGGLIQPGGSLRLSCAASGFIVSSNYMSWVRQAPGKGLEWVSVIYSGGSTFYTDSVKGRFTISRDNSKNTLYLQMNSLRAEDTAVYYCVRDYGDFYFDYWGQGTLVTVSS
VL: EIVLTQSPGTLSLSPGERATLSCRASQSVSSSYLAWYQQKPGQAPRLLIYGASSRATGIPDRFSGGGSETDFTLTISRLEPEDCAVYYCQQYGSSPRTFGQGTKVEIK
Regarding B5, the “Binds to” value in the series with SARS-CoV2 S; RBD is recorded as “SARS-CoV2”.

B6: C104 (antibody, listed as Homo sapiens, V domains shown)
VH: QVQLQQWGAGLLKPSETLSLSCAVYGGSLSGYYWSWIRQPPGKGLEWIGEINHFGSTGYNPSLKSRVTISVDTSKSQFSVKLSSVTAADTAVYYCARKPLLYSNLSPGAFDIWGQGTMVTVSS
VL: B5 VL with L11V, R24W, S31A, G66S, E69G, C84F, S94T, S95T, Q101G
In the case of B6, in the series with SARS-CoV2 S; RBD, the “Binds to” value is “SARS-CoV2”.

B7: C105 (antibody, listed as Homo sapiens, V domains shown)
VH: QVQLVESGGGLIQPGGSLRLSCAASGFTVSSNYMSWVRQAPGKGLEWVSVIYSGGSTYYADSVKGRFTISRDNSKNTLYLQMNSLRAEDTAVYYCARGEGWELPYDYWGQGTLVTVSS
VL: QSALTQPPSASGSPGQSVTISCTGTSSDVGGYKYVSWYQQHPGKAPKLMIYEVSKRPSGVPDRFSGSKSGNTASLTVSGLQAEDEADYYCSSYEGSNNFVVFGGGTKLTVL
For the molecule B7, the “Binds to” value in the series with SARS-CoV2 S; RBD is listed as “SARS-CoV2”.

B8: C108 (antibody, listed as Homo sapiens, V domains shown)
VH: QVQLQESGPGLVKPSGTLSLTCAVSGGSISSTNWWSWVRQPPGKGLEWIGEIYHTGSTNYNPSLKSRVTISVDKSKNQFSLKLSSVTAADTAVYYCVRDGGRPGDAFDIWGQGTMVTVSS
VL: QSALTQPASVSGSPGQSITISCTGTSSDVGGYNYVSWYQQHPGKAPKLMIYDVSNRPSGVSNRFSGSKSGNTASLTISGLQAEDEADYYCNSYTSSSTRVFGTGTKVTVL
With B8, the “Binds to” value in the series with SARS-CoV2 S; RBD is given as “SARS-CoV2”.

B9: C122 (antibody, listed as Homo sapiens, V domains shown)
VH: EVQLVESGGGLIQPGGSLRLSCAASGLTVSSNYMSWVRQAPGKGLEWVSVLYSGGSSFYADSVKGRFTISRDNSKNTLYLQMNSLRAEDTAVYYCARESGDTTMAFDYWGQGTLVTVSS
VL: DIQLTQSPSFLSASVGDRVTITCRASQGISSYLAWYQQKPGKAPKLLIYAASTLQSGVPSRFSGSGSGTEFTLTISSLQPEDFATYYCQQLNSDSYTFGQGTKLEIK
As for B9, the “Binds to” value with SARS-CoV2 S; RBD is “SARS-CoV2”.

B10: C123 (antibody, listed as Homo sapiens, V domains shown)
VH: EVQLVESGGGLIQPGGSLRLSCAASGVTVSRNYMSWVRQAPGKGLEWVSVIYSGGSTYYADSVKGRFTISRDNSKNTLYLQMNSLRAEDTAVYYCARDLSAAFDIWGQGTMVTVSS
VL: B9 VL with D94Y, S95P, Y96P, T97A, K103R
As to B10, the “Binds to” value with SARS-CoV2 S; RBD is recorded as “SARS-CoV2”.

B11: C120 (antibody, listed as Homo sapiens, V domains shown)
VH: EVQLVESGGGLIQPGGSLRLSCAASGFTVSSNYMTWVRQAPGKGLEWVSLIYPGGSTYYADSVKGRFTISRDNSKNTLYLQMNSLRAEDTAVYYCAREGMGMAAAGTWGQGTLVTVSS
VL: AIRMTQSPSSLSASVGDTVTITCQASQDISKYLNWYQQKPGKAPKLLIYDASNLETGVPSRFSGSGSGTDFTFTISSLQPEDIATYYCQQYDNLPQTFGGGTKVEIK
On to B11, for which, in the series with SARS-CoV2 S; RBD, the “Binds to” value was “SARS-CoV2”.

B12: C017 (antibody, listed as Homo sapiens, V domains shown)
VH: EVQLVESGGGLVQPGRSLRLSCAASGFTFDDYAMHWVRQAPGKGLEWVSGISWNSGTIGYADSVKGRFTISRDNAKNSLYLQMNSLRAEDTAFYYCAKAGVRGIAAAGPDLNFDHWGQGTLVTVSS
VL: EIVLTQSPATLSLSPGERATLSCRASQSVSSYLAWYQQKPGQAPRLLIYDASNRATGIPARFSGSGSGTDFTLTISSLEPEDFAVYYCQQRITFGQGTRLEIK
Take B12: in the series with SARS-CoV2 S; RBD, the “Binds to” value is given as “SARS-CoV2”.

B13: 2M-8H10 (antibody, listed as Homo sapiens, V domains shown)
VH: QVQLVESGGGVVLPGRSLRLSCAASGFTFSTFAMHWVRQAPGKGLEWVAVISDEGSNKYYADSVKGRFTISRDNSRNTLYLQMNSLRAEDTAVYYCARAFYDSNWSVGSYFDSWGQGTPVTVSS
VL: DIQMTQSPDSLAVSLGERATIKCKSSQSVLHSSNNKNYLAWYQQKAGQPPSLLLYWASTRESGVPDRFSGSGSGTDFTLTISSLQAEDVAVYYCQQYYNNQWTFGQGTKVDIK
On to B13, for which the “Binds to” value with SARS-CoV2 was “SARS-CoV2”.

B14: 2M-9H1 (antibody, listed as Homo sapiens, V domains shown)
VH: EVQLLESGGGVVQPGRSLRLSCVASGFNFNNYGMHWVRQAPGKGLEWLAALSYEGSKEHYADSLKGRFTVSRDYSRATLHLHMNSLEPEDTAVYFCAKSSKIFYLGESREVDYWGRGTLVTVSS
VL: DIVMTQSPSSLSAFVGDRVTITCRASRDIGGDLSWFQQKPGKAPERLIYAASSLESGVPSRFSGSGSATEFALTITSLQPEDFATYYCLQHKSYPLTFGGGTKVDIK
Consider B14, for which the “Binds to” value with SARS-CoV2 is given as “SARS-CoV2”.

B15: C115 (antibody, listed as Homo sapiens, V domains shown)
VH: QVQLVESGGGLIKPGRSLRLSCTASGFTFGDYAMTWFRQAPGKGLEWVGFIRSKAYGGTTGYAASVKYRFTISRDDSKSIAYLQMDSLKTEDTAVYYCTRWDGWSQHDYWGQGTLVTVSS
VL: DIVMTQSPLSLSVTPGEPASISCRSSQSLLHSNGNNYFDWYLQKPGQSPQLLIYLGSNRASGVPDRFSGSGSGTDFTLKISRVEAEDVGVYYCMQVLQIPYTFGQGTKLEIK
On to B15, for which the “Binds to” value with SARS-CoV2 S; RBD is “SARS-CoV2”.

B16: 2M-4G4 (antibody, listed as Homo sapiens, V domains shown)
VH: EVQLVESGAEVKKPGASVKVSCKASGYTFTSYYIHWVRQAPGQGLEWMGVINPSGGSTTYAQKFQGRVTVTRDTSTSTVYMELSSLRSEDTAVYYCARERGDSSGYYEIITTANRRFGMDVWGQGTTVTVSS
VL: QSVLTQPASVSGSPGQSITISCTGTSSDVGMYNLVSWYQQHPGQAPKLMIYEGSKRPSGVSNRFSGSKSGNTASLTISGLQAEDEAYYYCCSYAVSSTWVFGGGTKLTVL
Turning to B16, the “Binds to” value with SARS-CoV2 is recorded as “SARS-CoV2”.

B17: 2M-9F10 (antibody, listed as Homo sapiens, V domains shown)
VH: EVQLLQSGGDLIQPGRSLRLSCAASGFSFEDYAMHWVRQAPGQGLEWVSGISYNGGSIDYVDSVKGRFTISRDNAKNALYLEMNSLRPEDTAFYYCAKDSVRREYTHARVPFDNWGLGTLVTVSS
VL: AIRMTQSPSSLSASVGDRVTISCRATQNINYFLNWYQQKPGRAPKLLIYAASGLQSGVPSRFSGSGTGRVFTLTINSLQPDDFATYYCQQSFVSPRTFGQGTKVDIK
On to B17, for which the “Binds to” value in the series with SARS-CoV2 is “SARS-CoV2”.

B18: C103 (antibody, listed as Homo sapiens, V domains shown)
VH: QVQLQQWGAGLLKPSETLSLTCAVSGGSLSGFYWTWIRQPPGKGLEWIGETNHFGSTGYKPSLKSRVTISVDMSRNQFSLKVTSVTAADTAVYYCARKPLLYSDFSPGAFDIWGQGTMVTVSS
VL: EIVLTQSPGTLSLSPGERATLSCRASQTVTANYLAWYQQKPGQAPRLLIYGASKRATGIPDRFSGSGSGTDFTLSISRLEPEDFAVYYCQQYTTTPRTFGGGTKVEIK
With B18, in the series with SARS-CoV2 S; RBD, the “Binds to” value was “SARS-CoV2”.

B19: mAb-85 (antibody, listed as Homo sapiens, V domains shown)
VH: QVQLQESGPGLVKPSGTLSLTCAVSGGSITSRDWWSWVRQPPGKGLEWIGEVYHSGSTSYNPSLKSRVTISVDKSKNEFSLKLSSVTAADTAVYYCARAGNIVVMPAAQYYFDYWGQGTLVTVSS
VL: EIVLTQSPSSLSASVGDRVTITCRASQDISNYLAWYQQKPGKAPKLLIYAASTLQSGVPLRFSGSGSGTDFTLTISSLQPEDFATYYCLQLHNYSSFGGGTKVDIK
Take B19: the “Doesn't Bind to” value with SARS-CoV1 S is “CoV1”; with NL63 S, “NL63,”; in the series with OC43 S it was “OC43,”. For the same molecule, in the series with SARS-CoV2 S, the “Binds to” value is given as “SARS-CoV2”.

B20: C110 (antibody, listed as Homo sapiens, V domains shown)
VH: QVQLQQSGAEVKKPGESLKISCKGSGYSFTSYWIGWVRQMPGKGLEWMGIIYPGDSDTRYSPSFQGQVTISADKSISTAYMQWSSLKASDTAMYYCARSFRDDPRIAVAGPADAFDIWGQGTMVTVSS
VL: DIQMTQSPSTLSASVGDRVTITCRASQSISYWLAWYQQKPGKAPKLLIYQASSLESGVPSRFSGSESGTEFTLTISSLQPDDFATYYCQQYNSYPYTFGQGTKLEIK
In the case of B20, the “Binds to” value with SARS-CoV2 S; RBD was “SARS-CoV2”.
